According to publication PMC12884772, “Macrophagic Sclerostin Loop2‐ApoER2 Interaction Required by Sclerostin for Cardiovascular Protective Action” (Advanced Science, 2025):

Molecular target: His-sclerostin loop2 (Limits are not printed (Table S1 not shown). Loop2 taken by convention as the cystine-knot segment Cys-Cys, mature 84-109 in mouse. The paper's mature numbering (I94..W99, with V97 specific to mouse))
Sequence (chain, as listed by the source): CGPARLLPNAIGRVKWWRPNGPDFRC
Test: BLI; His-sclerostin loop2 loaded on anti-penta-HIS (HIS1K) biosensors, immersed in ApoER2-LA7 at different concentrations
Settings: both partners purified

Kd: 1900 nM
B1: ApoER2-LA7 (P290-L326) (peptide)
peptide: PCRENEFQCGDGTCVLAIKRCNQERDCPDGSDEAGCL
notes: LDLR type A repeat 7 (LA7) of ApoER2, P290-L326; The form with D-residues at the first and last three positions was used only in vivo and is not this molecule; also called ApoER2-Pep; ApoER2 peptide tool
